Target: Human IgG in human serum

B1: Recombinant IdeS expressed from codon-optimized cDNA IdeS^op2 (pGEX-IdeS^op2), designated Ab-C (protein)
chain: RKRCYSTSAVVLAAVTLFALSVDRGVIADSFSANQEIRYSEVTPYHVTSVWTKGVTPPAKFTQGEDVFHAPYVANQGWYDITKTFNGKDDLLCGAATAGNMLHWWFDQNKEKIEAYLKKHPDKQKIMFGDQELLDVRKVINTKGDQTNSELFNYFRDKAFPGLSARRIGVMPDLVLDMFINGYYLNVYKTQTTDVNRTYQEKDRRGGIFDAVFTRGDQSKLLTSRHDFKEKNLKEISDLIKKELTEGKALGLSHTYANVRINHVINLWGADFDSNGNLKAIYVTDSDSNASIGMKKYFVGVNSAGKVAISAKEIKEDNIGAQVLGLFTLSTGQDSWNQTN
In the case of B1, the “IgG cleavage, PAGE-Coomassie stain, purified normalized IdeS samples incubated with human serum for 1 h” value is reported as “The results showed more effective IgG cleavage by IdeS^op2”.

— patent US20240271115A1
